This is an account of results in patent publication US11819552B2, “Antibody-drug conjugates targeting uPARAP” (RIGSHOSPITALET, priority 2016, dated 2023).

Experiment [1] deals with T1, soluble truncated uPARAP protein containing the first 3 N-terminal domains of human uPARAP (Homo sapiens, UniProt Q9UBG0).
T1 construct: a soluble truncated uPARAP protein containing the first 3 N-terminal domains of human uPARAP
T1 sequence (Q9UBG0 31-365): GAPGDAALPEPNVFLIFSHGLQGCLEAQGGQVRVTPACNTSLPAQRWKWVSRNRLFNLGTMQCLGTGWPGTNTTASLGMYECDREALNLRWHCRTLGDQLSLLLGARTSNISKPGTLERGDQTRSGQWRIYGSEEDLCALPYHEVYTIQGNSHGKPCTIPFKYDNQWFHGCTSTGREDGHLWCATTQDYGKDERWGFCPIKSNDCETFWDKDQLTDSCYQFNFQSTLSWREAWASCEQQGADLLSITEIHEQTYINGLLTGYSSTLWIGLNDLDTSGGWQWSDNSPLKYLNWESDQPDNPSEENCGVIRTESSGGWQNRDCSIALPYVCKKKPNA
The experiment can be described thus: ELISA analysis of uPARAP-binding of mAbs. Particulars: after reduction step of conjugation, or in ADC form. Here is the method:
Untreated mAbs (2h9 or aTNP), same mAbs subjected to the reduction procedure of conjugation (see above), or ADCs 2h9-vc-MMAE or aTNP-vc-MMAE, were then employed as a primary antibody, followed by a HRP-conjugated rabbit anti-mouse Ig secondary antibody. Finally an o-phenylenediamine dihydrochloride-containing substrate solution was added, and the color reaction was stopped by adding 1M H2SO4. Plates were read at 492 nm using a plate reader.

The target in experiment [2] is T2, mouse uPARAP (Mus musculus, UniProt Q64449).
T2 sequence (Q64449 31-1479): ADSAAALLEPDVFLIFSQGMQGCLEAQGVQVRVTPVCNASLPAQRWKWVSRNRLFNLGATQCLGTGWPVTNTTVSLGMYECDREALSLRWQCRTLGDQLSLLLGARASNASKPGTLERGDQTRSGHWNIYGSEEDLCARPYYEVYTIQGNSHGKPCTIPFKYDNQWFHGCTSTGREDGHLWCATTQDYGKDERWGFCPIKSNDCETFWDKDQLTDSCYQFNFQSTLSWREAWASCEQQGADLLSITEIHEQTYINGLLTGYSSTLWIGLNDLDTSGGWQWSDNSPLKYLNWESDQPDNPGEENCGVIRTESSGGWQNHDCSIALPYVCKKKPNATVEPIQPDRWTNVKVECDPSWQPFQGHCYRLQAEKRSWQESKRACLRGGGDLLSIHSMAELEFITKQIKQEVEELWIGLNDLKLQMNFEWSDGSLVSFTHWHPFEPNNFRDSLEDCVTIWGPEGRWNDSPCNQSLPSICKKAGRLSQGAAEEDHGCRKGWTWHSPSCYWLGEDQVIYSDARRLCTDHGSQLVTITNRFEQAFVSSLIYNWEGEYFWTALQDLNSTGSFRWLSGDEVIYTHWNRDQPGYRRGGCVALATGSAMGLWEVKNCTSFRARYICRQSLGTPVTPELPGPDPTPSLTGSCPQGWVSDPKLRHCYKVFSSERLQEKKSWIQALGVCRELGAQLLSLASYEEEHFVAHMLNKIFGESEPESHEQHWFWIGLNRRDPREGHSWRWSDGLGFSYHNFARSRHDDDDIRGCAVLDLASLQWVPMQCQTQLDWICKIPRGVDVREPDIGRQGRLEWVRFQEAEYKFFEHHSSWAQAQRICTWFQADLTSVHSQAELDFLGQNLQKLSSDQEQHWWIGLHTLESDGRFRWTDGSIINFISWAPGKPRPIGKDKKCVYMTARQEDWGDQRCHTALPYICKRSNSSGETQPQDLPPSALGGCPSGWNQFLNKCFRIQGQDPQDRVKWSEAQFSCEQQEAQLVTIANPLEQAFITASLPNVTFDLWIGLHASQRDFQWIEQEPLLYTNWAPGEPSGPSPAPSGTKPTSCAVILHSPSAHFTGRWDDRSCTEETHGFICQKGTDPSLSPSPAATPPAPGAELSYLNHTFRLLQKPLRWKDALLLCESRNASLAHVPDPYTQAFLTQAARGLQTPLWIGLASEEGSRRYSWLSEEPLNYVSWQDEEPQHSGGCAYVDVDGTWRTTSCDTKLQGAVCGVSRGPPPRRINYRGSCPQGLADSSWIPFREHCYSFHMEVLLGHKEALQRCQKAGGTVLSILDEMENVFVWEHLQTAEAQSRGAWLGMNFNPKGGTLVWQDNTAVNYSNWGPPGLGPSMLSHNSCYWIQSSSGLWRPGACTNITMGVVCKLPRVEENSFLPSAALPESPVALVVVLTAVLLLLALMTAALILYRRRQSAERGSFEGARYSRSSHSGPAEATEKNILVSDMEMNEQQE
The experiment is described as follows: Antibody reactivity with uPARAP. The format is binding. Particulars: listed as 2h9.

Entries after “also recorded” stand apart in the source; their conditions may differ.

B1: mAb 2h9: mouse monoclonal IgG1k anti-uPARAP antibody clone 2.h.9: F12, produced by hybridoma cell culture (protein)
light: DIQMTQSPASQSASLGESVTITCLASQTIGTWLAWYQQKPGKSPQLLIYAATTLTDGVPSRFSGAGSGTKFSLKISSLQAEDFASYFCQEFFSTPFTFGSGTKLELKRADAAPTVSIFPPSSEQLTSGGASVVCFLNNFYPKDINVKWKIDGGERQNGVLNSWTDQDSKDSTYSMSSTLTLTKDEYERHNSYTCEATHKTSTSPIVKSFNRNEC
heavy: QVQLQQPGTELVRPGLSVKLSCKASGYTFTSYWMNWVKQRPGQGLEWIGMIHPSNDEKRINQKFKDKATLTVDKFSSTVYMQVSSPTSEDSAVYYCARGGGDYVGDYALDFWGQGTSVTVSSAKTTPPSVYPLAPGSAAQTNSMVTLGCLVKGYFPEPVTVTWNSGSLSSGVHTFPAVLQSDLYTLSSSVTVPSSTWPSETVTCNVAHPASSTKVDKKIVPRDCGCKPCICTVPEVSSVFIFPPKPKDVLTITLTPKVTCVVVDISKDDPEVQFSWFVDDVEVHTAQTQPREEQFNSTFRSVSELPIMHQDWLNGKEFKCRVNSAAFPAPIEKTISKTKGRPKAPQVYTIPPPKEQMAKDKVSLTCMITDFFPEDITVEWQWNGQPAENYKNTQPIMDTDGSYFIYSKLNVQKSNWEAGNTFTCSVLHEGLHNHHTEKSLSHSPGK
As to B1, the “Affinity towards uPARAP following conjugation procedure” value is “retained affinity” in experiment [1] and “negligible loss of affinity” in experiment [1] (listed as 2h9). Besides, the “Reactivity with mouse uPARAP” value in experiment [2] is “reactive against both human and murine uPARAP; also recorded: reacts with both human and mouse uPARAP”.
